Results from publication PMC6599547 (Journal of molecular biology, 2019).

Target: T1, N-terminally tagged soluble SARAF luminal domain, SP-XFP-SARAFL-R (SARAF(Δ165-339) with signal peptide and … (human, UniProt Q96BY9 31-164))
T1 sequence: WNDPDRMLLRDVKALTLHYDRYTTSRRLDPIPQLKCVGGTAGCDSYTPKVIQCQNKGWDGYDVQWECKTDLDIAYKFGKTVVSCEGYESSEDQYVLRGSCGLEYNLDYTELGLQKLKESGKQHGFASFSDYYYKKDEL
Assay: FRET or BRET

FRET signal, fold over the pair with both fluorophores at the N-terminus: ~3 fold
B1: C-terminally tagged soluble SARAF luminal domain, SP-SARAFL-XFP-R (domain or fragment, human)
chain: WNDPDRMLLRDVKALTLHYDRYTTSRRLDPIPQLKCVGGTAGCDSYTPKVIQCQNKGWDGYDVQWECKTDLDIAYKFGKTVVSCEGYESSEDQYVLRGSCGLEYNLDYTELGLQKLKESGKQHGFASFSDYYYKTGRPACKIPNDLKQKVMNHKDEL
